Assay results reported in IntAct's records for PubMed 25502805.

B1: DNA mismatch repair protein Mlh1 (Homo sapiens), P40692 (parent)
chain: MSFVAGVIRRLDETVVNRIAAGEVIQRPANAIKEMIENCLDAKSTSIQVIVKEGGLKLIQIQDNGTGIRKEDLDIVCERFTTSKLQSFEDLASISTYGFRGEALASISHVAHVTITTKTADGKCAYRASYSDGKLKAPPKPCAGNQGTQITVEDLFYNIATRRKALKNPSEEYGKILEVVGRYSVHNAGISFSVKKQGETVADVRTLPNASTVDNIRSIFGNAVSRELIEIGCEDKTLAFKMNGYISNANYSVKKCIFLLFINHRLVESTSLRKAIETVYAAYLPKNTHPFLYLSLEISPQNVDVNVHPTKHEVHFLHEESILERVQQHIESKLLGSNSSRMYFTQTLLPGLAGPSGEMVKSTTSLTSSSTSGSSDKVYAHQMVRTDSREQKLDAFLQPLSKPLSSQPQAIVTEDKTDISSGRARQQDEEMLELPAPAEVAAKNQSLEGDTTKGTSEMSEKRGPTSSNPRKRHREDSDVEMVEDDSRKEMTAACTPRRRIINLTSVLSLQEEINEQGHEVLREMLHNHSFVGCVNPQWALAQHQTKLYLLNTTKLSEELFYQILIYDFANFGVLRLSEPAPLFDLAMLALDSPESGWTEEDGPKEGLAEYIVEFLKKKAEMLADYFSLEIDEEGNLIGLPLLIDNYVPPLEGLPIFILRLATEVNWDEEKECFESLSKECAMFYSIRKQYISEESTLSGQQSEVPGSIPNSWKWTVEHIVYKALRSHILPPKHFTEDGNILQLANLPDLYKVFERC
partner: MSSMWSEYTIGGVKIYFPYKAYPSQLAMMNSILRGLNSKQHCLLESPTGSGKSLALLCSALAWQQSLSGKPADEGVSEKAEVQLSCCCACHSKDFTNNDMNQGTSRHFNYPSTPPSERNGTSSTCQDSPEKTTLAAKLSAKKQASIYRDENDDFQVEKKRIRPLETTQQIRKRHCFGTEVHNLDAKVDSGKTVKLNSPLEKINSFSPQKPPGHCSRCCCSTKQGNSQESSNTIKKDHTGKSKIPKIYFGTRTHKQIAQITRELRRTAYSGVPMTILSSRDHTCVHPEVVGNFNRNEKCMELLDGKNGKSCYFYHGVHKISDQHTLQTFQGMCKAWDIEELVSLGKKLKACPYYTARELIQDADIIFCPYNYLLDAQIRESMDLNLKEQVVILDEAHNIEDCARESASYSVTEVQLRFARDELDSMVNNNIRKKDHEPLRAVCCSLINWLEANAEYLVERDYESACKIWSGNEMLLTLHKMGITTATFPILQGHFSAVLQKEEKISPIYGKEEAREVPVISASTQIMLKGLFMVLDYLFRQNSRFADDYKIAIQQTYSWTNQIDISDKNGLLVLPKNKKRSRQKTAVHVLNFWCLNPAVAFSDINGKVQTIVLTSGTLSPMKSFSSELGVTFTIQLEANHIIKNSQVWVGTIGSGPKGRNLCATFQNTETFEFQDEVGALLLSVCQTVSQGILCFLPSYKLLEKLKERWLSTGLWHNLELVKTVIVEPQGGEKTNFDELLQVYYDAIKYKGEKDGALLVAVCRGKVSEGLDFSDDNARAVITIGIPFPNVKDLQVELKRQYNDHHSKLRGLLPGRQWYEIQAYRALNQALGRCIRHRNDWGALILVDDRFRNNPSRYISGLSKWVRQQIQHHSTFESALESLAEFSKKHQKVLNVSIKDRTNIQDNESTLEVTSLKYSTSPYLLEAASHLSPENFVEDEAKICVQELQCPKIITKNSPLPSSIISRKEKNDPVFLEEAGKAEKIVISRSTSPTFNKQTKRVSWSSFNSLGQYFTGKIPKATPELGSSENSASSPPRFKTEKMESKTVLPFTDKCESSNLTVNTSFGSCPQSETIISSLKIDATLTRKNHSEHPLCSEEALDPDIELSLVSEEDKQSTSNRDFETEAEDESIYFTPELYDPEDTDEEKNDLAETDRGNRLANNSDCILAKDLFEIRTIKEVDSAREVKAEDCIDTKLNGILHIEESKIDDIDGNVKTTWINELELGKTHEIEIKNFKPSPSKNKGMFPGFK
B2: Interleukin-1 receptor-associated kinase 4 (Homo sapiens), Q9NWZ3 (parent)
chain: MNKPITPSTYVRCLNVGLIRKLSDFIDPQEGWKKLAVAIKKPSGDDRYNQFHIRRFEALLQTGKSPTSELLFDWGTTNCTVGDLVDLLIQNEFFAPASLLLPDAVPKTANTLPSKEAITVQQKQMPFCDKDRTLMTPVQNLEQSYMPPDSSSPENKSLEVSDTRFHSFSFYELKNVTNNFDERPISVGGNKMGEGGFGVVYKGYVNNTTVAVKKLAAMVDITTEELKQQFDQEIKVMAKCQHENLVELLGFSSDGDDLCLVYVYMPNGSLLDRLSCLDGTPPLSWHMRCKIAQGAANGINFLHENHHIHRDIKSANILLDEAFTAKISDFGLARASEKFAQTVMTSRIVGTTAYMAPEALRGEITPKSDIYSFGVVLLEIITGLPAVDEHREPQLLLDIKEEIEDEEKTIEDYIDKKMNDADSTSVEAMYSVASQCLHEKKNKRPDIKKVQQLLQEMTAS
B3: Cyclin-dependent kinase 4 (Homo sapiens), P11802 (parent)
chain: MATSRYEPVAEIGVGAYGTVYKARDPHSGHFVALKSVRVPNGGGGGGGLPISTVREVALLRRLEAFEHPNVVRLMDVCATSRTDREIKVTLVFEHVDQDLRTYLDKAPPPGLPAETIKDLMRQFLRGLDFLHANCIVHRDLKPENILVTSGGTVKLADFGLARIYSYQMALTPVVVTLWYRAPEVLLQSTYATPVDMWSVGCIFAEMFRRKPLFCGNSEADQLGKIFDLIGLPPEDDWPRDVSLPRGAFPPRGPRPVQSVVPEMEESGAQLLLEMLTFNPHKRISAFRALQHSYLHKDEGNPE

Variants of: B1
Conditions: with fancj_human BRIP1, Q9BX63

Variant	effect of a mutation on the interaction
I107R	with no effect

Variants of: B2
Conditions: with myd88_human MYD88, Q99836
myd88_human MYD88, Q99836, sequence (Q99836 whole entry): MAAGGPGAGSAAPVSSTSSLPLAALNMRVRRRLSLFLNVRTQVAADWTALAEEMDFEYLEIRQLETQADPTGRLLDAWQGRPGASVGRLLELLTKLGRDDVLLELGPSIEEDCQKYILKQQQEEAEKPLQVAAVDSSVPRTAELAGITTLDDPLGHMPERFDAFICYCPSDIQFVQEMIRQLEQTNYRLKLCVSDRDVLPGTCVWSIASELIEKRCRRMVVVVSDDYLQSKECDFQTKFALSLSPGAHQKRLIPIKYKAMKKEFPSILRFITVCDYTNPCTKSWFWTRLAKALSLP

Variant	effect of a mutation on the interaction
MNKPITPSTYVCCLNVGLIRKLSDFIDPQEGWKKLAVAIKKPSGDDRYNQFHIRRFEALLQTGKSPTSELLFDWGTTNCTVGDLVDLLIQNEFFAPASLLLPDAVPKTANTLPSKEAITVQQKQMPFCDKDRTLMTPVQNLEQSYMPPDSSSPENKSLEVSDTRFHSFSFYELKNVTNNFDERPISVGGNKMGEGGFGVVYKGYVNNTTVAVKKLAAMVDITTEELKQQFDQEIKVMAKCQHENLVELLGFSSDGDDLCLVYVYMPNGSLLDRLSCLDGTPPLSWHMRCKIAQGAANGINFLHENHHIHRDIKSANILLDEAFTAKISDFGLARASEKFAQTVMTSRIVGTTAYMAPEALRGEITPKSDIYSFGVVLLEIITGLPAVDEHREPQLLLDIKEEIEDEEKTIEDYIDKKMNDADSTSVEAMYSVASQCLHEKKNKRPDIKKVQQLLQEMTAS [R12C]	disrupting interaction strength
MNKPITPSTYVRCLNVGLIRKLSDFIDPQEGWKKLAVAIKKPSGDDRYNQFHIRRFEALLQTGKSPTSELLFDWGTTNCTVGDLVDLLIQNEFFAPASLLLPDAVPKTANTLPSKEAITVQQKQMPFCDKDRTLMTPVQNLEQSYMPPDSSSPENKSLEVSDTRFHSFSFYELKNVTNNFDERPISVGGNKMGEGGFGVVYKGYVNNTTVAVKKLAAMVDITTEELKQQFDQEIKVMAKCQHENLVELLGFSSDGDDLCLVYVYMPNGSLLDRLSCLDGTPPLSWHMRCKIAQGAANDINFLHENHHIHRDIKSANILLDEAFTAKISDFGLARASEKFAQTVMTSRIVGTTAYMAPEALRGEITPKSDIYSFGVVLLEIITGLPAVDEHREPQLLLDIKEEIEDEEKTIEDYIDKKMNDADSTSVEAMYSVASQCLHEKKNKRPDIKKVQQLLQEMTAS [G298D]	disrupting interaction strength
MNKPITPSTYVRCLNVGLIRKLSDFIDPQEGWKKLAVAIKKPSGDDRYNQFHIRRFEALLQTGKSPTSELLFDWGTTNCTVGDLVDLLIQNEFFAPASLLLPDAVPKTANTLPSKEAITVQQKQMPFCDKDRTLMTPVQNLEQSYMPPDSSSPENKSLEVSDTRFHSFSFYELKNVTNNFDERPISVGGNKMGEGGFGVVYKGYVNNTTVAVKKLAAMVDITTEELKQQFDQEIKVMAKCQHENLVELLGFSSDGDDLCLVYVYMPNGSLLDRLSCLDGTPPLSWHMRCKIAQGAANGINFLHENHHIHRDIKSANILLDEAFTAKISDFGLARASEKFAQTVMTSRIVGTTAYMAPEALRGEITPKSDIYSFGVVLLEIITGLPAVDEHREPQLLLDIKEEIEDEEKTIEDYIDKKMNDADSTSVETMYSVASQCLHEKKNKRPDIKKVQQLLQEMTAS [A428T]	with no effect

Variants of: B3
Conditions: with ccnd1_human CCND1, P24385
ccnd1_human CCND1, P24385, sequence (P24385 whole entry): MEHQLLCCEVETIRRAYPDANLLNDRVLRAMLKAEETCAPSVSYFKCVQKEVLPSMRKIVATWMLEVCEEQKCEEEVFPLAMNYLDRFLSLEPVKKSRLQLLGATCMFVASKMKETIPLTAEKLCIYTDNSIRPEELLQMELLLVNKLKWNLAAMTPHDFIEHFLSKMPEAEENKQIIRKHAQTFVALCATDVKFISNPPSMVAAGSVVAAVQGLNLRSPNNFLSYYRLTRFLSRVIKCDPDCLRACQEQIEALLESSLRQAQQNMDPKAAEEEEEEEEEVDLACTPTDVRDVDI

Variant	effect of a mutation on the interaction
MATSRYEPVAEIGVGAYGTVYKAHDPHSGHFVALKSVRVPNGGGGGGGLPISTVREVALLRRLEAFEHPNVVRLMDVCATSRTDREIKVTLVFEHVDQDLRTYLDKAPPPGLPAETIKDLMRQFLRGLDFLHANCIVHRDLKPENILVTSGGTVKLADFGLARIYSYQMALTPVVVTLWYRAPEVLLQSTYATPVDMWSVGCIFAEMFRRKPLFCGNSEADQLGKIFDLIGLPPEDDWPRDVSLPRGAFPPRGPRPVQSVVPEMEESGAQLLLEMLTFNPHKRISAFRALQHSYLHKDEGNPE [R24H]	with no effect
MATSRYEPVAEIGVGAYGTVYKARDPHSGHFVALKSVRVPSGGGGGGGLPISTVREVALLRRLEAFEHPNVVRLMDVCATSRTDREIKVTLVFEHVDQDLRTYLDKAPPPGLPAETIKDLMRQFLRGLDFLHANCIVHRDLKPENILVTSGGTVKLADFGLARIYSYQMALTPVVVTLWYRAPEVLLQSTYATPVDMWSVGCIFAEMFRRKPLFCGNSEADQLGKIFDLIGLPPEDDWPRDVSLPRGAFPPRGPRPVQSVVPEMEESGAQLLLEMLTFNPHKRISAFRALQHSYLHKDEGNPE [N41S]	with no effect
MATSRYEPVAEIGVGAYGTVYKARDPHSGHFVALKSVRVPNGGGGGGGLPINTVREVALLRRLEAFEHPNVVRLMDVCATSRTDREIKVTLVFEHVDQDLRTYLDKAPPPGLPAETIKDLMRQFLRGLDFLHANCIVHRDLKPENILVTSGGTVKLADFGLARIYSYQMALTPVVVTLWYRAPEVLLQSTYATPVDMWSVGCIFAEMFRRKPLFCGNSEADQLGKIFDLIGLPPEDDWPRDVSLPRGAFPPRGPRPVQSVVPEMEESGAQLLLEMLTFNPHKRISAFRALQHSYLHKDEGNPE [S52N]	with no effect
